{"source": "paper PMC9723649", "key": {"purified protein [1]": {"substrate": "N[C@@H](CO)C(=O)O", "test": "purified protein"}, "purified protein [2]": {"substrate": "Nc1ncnc2c1ncn2[C@@H]1O[C@H](COP(=O)(O)OP(=O)(O)OP(=O)(O)O)[C@@H](O)[C@H]1O", "test": "purified protein"}}}
{"protein": "SARS2 (human mitochondrial seryl-tRNA synthetase, mature form) (Homo sapiens) (protein) TTEKRNRNLLYEYAREGYSALPQLDIERFCACPEEAAHALELRKGELRSADLPAIISTWQELRQLQEQIRSLEEEKAAVTEAVRALLANQDSGEVQQDPKYQGLRARGREIRKELVHLYPREAQLEEQFYLQALKLPNQTHPDVPVGDESQARVLHMVGDKPVFSFQPRGHLEIGEKLDIIRQKRLSHVSGHRSYYLRGAGALLQHGLVNFTFNKLLRRGFTPMTVPDLLRGAVFEGCGMTPNANPSQIYNIDPARFKDLNLAGTAEVGLAGYFMDHTVAFRDLPVRMVCSSTCYRAETNTGQEPRGLYRVHHFTKVEMFGVTGPGLEQSSQLLEEFLSLQMEILTELGLHFRVLDMPTQELGLPAYRKFDIEAWMPGRGRFGEVTSASNCTDFQSRRLHIMFQTEAGELQFAHTVNATACAVPRLLIALLESNQQKDGSVLVPPALQSYLGTDRITAPTHVPLQYIGPNQPRKPGLPGQPAVS", "values": [{"measurement": "Km", "setting": "purified protein [1]", "value": "2.40 ± 0.04", "unit": "mM"}, {"measurement": "Km", "setting": "purified protein [2]", "value": "112.83 ± 10.54", "unit": "µM"}]}
